Among the data in PMC7641752, “A hand-off of DNA between archaeal polymerases allows high-fidelity replication to resume at a discrete intermediate three bases past 8-oxoguanine” are observed rate constant (kobs) of 8-oxoG lesion bypass from primer p22 (-1), Scheme ii: PolY added, observed rate constant (kobs) of extension from primer p26 (+3), Scheme vi: PolB1 added and Kd values, retold here.

The target of data set [1] is T1, PCNA123 (Saccharolobus solfataricus) (UniProt P57766).
T1 sequence 1: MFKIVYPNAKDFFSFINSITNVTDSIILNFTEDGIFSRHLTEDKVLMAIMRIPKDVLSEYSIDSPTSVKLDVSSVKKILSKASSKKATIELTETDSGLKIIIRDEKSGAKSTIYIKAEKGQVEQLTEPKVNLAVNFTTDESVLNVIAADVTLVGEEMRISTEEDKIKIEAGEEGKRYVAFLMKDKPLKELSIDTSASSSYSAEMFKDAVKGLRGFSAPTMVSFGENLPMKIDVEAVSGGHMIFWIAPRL
T1 sequence 2: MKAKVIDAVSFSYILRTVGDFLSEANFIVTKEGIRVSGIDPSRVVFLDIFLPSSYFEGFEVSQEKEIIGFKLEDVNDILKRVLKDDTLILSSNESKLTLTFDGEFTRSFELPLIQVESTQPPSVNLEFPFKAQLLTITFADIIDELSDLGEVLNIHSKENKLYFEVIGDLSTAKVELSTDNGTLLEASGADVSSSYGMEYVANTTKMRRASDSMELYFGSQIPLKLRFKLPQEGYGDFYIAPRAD
T1 sequence 3: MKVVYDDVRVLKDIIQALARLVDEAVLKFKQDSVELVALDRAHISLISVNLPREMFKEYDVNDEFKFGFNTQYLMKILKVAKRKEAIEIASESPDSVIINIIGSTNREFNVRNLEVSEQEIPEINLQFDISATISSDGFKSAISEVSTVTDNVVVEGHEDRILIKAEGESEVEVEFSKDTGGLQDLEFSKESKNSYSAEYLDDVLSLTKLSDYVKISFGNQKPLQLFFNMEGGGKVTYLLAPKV

Data set [2] deals with T1, PCNA123 (Saccharolobus solfataricus). This is another data set of the same source.
Data set [3] deals with T2, PolY (Y-family TLS DNA polymerase) (Saccharolobus/Sulfolobus solfataricus …, UniProt Q97W02 1-352).
T2 sequence: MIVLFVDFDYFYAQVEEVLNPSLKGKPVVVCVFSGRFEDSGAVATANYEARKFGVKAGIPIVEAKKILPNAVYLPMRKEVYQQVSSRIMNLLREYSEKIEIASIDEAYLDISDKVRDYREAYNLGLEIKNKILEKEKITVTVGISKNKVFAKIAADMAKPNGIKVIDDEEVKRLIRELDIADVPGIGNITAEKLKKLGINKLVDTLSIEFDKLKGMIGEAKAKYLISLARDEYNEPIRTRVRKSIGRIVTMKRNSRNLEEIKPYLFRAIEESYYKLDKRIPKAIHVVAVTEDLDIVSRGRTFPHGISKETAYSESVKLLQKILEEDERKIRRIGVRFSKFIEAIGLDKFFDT
In words: fluorescence anisotropy; Fluorescence anisotropy, 4 nM DNA, room temperature, 90 s incubation, Hill fit, mean of three titrations; binding buffer not stated in the material (as in ref 38). The following applies: protein: recombinant, label: 5'-FAM on primer (strand 1), primer-template.

Setting [4] is: 5' overhang 30 nt on template (strand 2).
The mark [5] stands for this setting: 5' overhang 26 nt on template (strand 2).

B1: PolY (enzyme)
chain: MIVLFVDFDYFYAQVEEVLNPSLKGKPVVVCVFSGRFEDSGAVATANYEARKFGVKAGIPIVEAKKILPNAVYLPMRKEVYQQVSSRIMNLLREYSEKIEIASIDEAYLDISDKVRDYREAYNLGLEIKNKILEKEKITVTVGISKNKVFAKIAADMAKPNGIKVIDDEEVKRLIRELDIADVPGIGNITAEKLKKLGINKLVDTLSIEFDKLKGMIGEAKAKYLISLARDEYNEPIRTRVRKSIGRIVTMKRNSRNLEEIKPYLFRAIEESYYKLDKRIPKAIHVVAVTEDLDIVSRGRTFPHGISKETAYSESVKLLQKILEEDERKIRRIGVRFSKFIEAIGLDKFFDT
Regarding B1, in data set [1], the observed rate constant (kobs) of 8-oxoG lesion bypass from primer p22 (-1), Scheme ii: PolY added at initiation to DNA pre-loaded with PCNA123 and RFC; rapid quench, 40°C amounted to 0.22 s⁻¹.

B2: PolB1 (enzyme)
chain: MTKQLTLFDIPSSKPAKSEQNTQQSQQSAPVEEKKVVRREWLEEAQENKIYFLLQVDYDGKKGKAVCKLFDKETQKIYALYDNTGHKPYFLVDLEPDKVGKIPKIVRDPSFDHIETVSKIDPYTWNKFKLTKIVVRDPLAVRRLRNDVPKAYEAHIKYFNNYMYDIGLIPGMPYVVKNGKLESVYLSLDEKDVEEIKKAFADSDEMTRQMAVDWLPIFETEIPKIKRVAIDIEVYTPVKGRIPDSQKAEFPIISIALAGSDGLKKVLVLNRNDVNEGSVKLDGISVERFNTEYELLGRFFDILLEYPIVLTFNGDDFDLPYIYFRALKLGYFPEEIPIDVAGKDEAKYLAGLHIDLYKFFFNKAVRNYAFEGKYNEYNLDAVAKALLGTSKVKVDTLISFLDVEKLIEYNFRDAEITLQLTTFNNDLTMKLIVLFSRISRLGIEELTRTEISTWVKNLYYWEHRKRNWLIPLKEEILAKSSNIRTSALIKGKGYKGAVVIDPPAGIFFNITVLDFASLYPSIIRTWNLSYETVDIQQCKKPYEVKDETGEVLHIVCMDRPGITAVITGLLRDFRVKIYKKKAKNPNNSEEQKLLYDVVQRAMKVFINATYGVFGAETFPLYAPAVAESVTALGRYVITSTVKKAREEGLTVLYGDTDSLFLLNPPKNSLENIIKWVKTTFNLDLEVDKTYKFVAFSGLKKNYFGVYQDGKVDIKGMLVKKRNTPEFVKKVFNEVKELMISINSPNDVKEIKRKIVDVVKGSYEKLKNKGYNLDELAFKVMLSKPLDAYKKNTPQHVKAALQLRPFGVNVLPRDIIYYVKVRSKDGVKPVQLAKVTEIDAEKYLEALRSTFEQILRAFGVSWDEIAATMSIDSFFSYPSKGNS
As for B2, the observed rate constant (kobs) of extension from primer p26 (+3), Scheme vi: PolB1 added at initiation to DNA pre-loaded with PCNA123 and RFC; rapid quench, 40°C in data set [2] is 2.1 s⁻¹.

B3: p22-FAM/t52Und (-1, undamaged) (dsDNA)
DNA 1: GCGAGGCGAGCGCGAGCGATAC
DNA 2: CGTCCAACATGAAGCTTGCACTCGATCGCGGTATCGCTCGCGCTCGCCTCGC
Turning to B3, the dissociation constant (Kd) – broadly, a measure of binding affinity in units of concentration – in data set [3] (setting [4]) came to 16.1 ± 0.4 nM.

B4: p22-FAM/t528 (-1, 8-oxoG) (dsDNA)
DNA 1: GCGAGGCGAGCGCGAGCGATAC
DNA 2: CGTCCAACATGAAGCTTGCACTCGATCGCGGTATCGCTCGCGCTCGCCTCGC
modifications: 8-oxoguanine at position 30 from 5' of strand 2 (23 from 3' end), written as G
With B4, the dissociation constant Kd in data set [3] (setting [4]) came out at 25.9 ± 8.2 nM.

B5: p26-FAM/t52Und (+3, undamaged) (dsDNA)
DNA 1: GCGAGGCGAGCGCGAGCGATACCGCG
DNA 2: CGTCCAACATGAAGCTTGCACTCGATCGCGGTATCGCTCGCGCTCGCCTCGC
For B5, in data set [3] (setting [5]), the dissociation constant Kd came out at 31.2 ± 3.5 nM.

B6: p26-FAM/t528 (+3, 8-oxoG) (dsDNA)
DNA 1: GCGAGGCGAGCGCGAGCGATACCGCG
DNA 2: CGTCCAACATGAAGCTTGCACTCGATCGCGGTATCGCTCGCGCTCGCCTCGC
modifications: 8-oxoguanine at position 30 from 5' of strand 2 (23 from 3' end), written as G
As for B6, the Kd in data set [3] (setting [5]) is 13 ± 0.4 nM.
